Source: patent publication US20240059799A1 (Pfizer, published 2024)
Changes are numbered by the printed parent chain. One block for each binder: values may come before it.

Legend:
human IL-23 = target: T1, human IL-23 (human, UniProt P29460 23-328; Q9NPF7 20-189); assay: SPR, 37 C; antibody captured by anti-human Fc, human IL-23 injected
T1 construct: also called recombinant human IL-23 (p40/p19)
T1 sequence 1: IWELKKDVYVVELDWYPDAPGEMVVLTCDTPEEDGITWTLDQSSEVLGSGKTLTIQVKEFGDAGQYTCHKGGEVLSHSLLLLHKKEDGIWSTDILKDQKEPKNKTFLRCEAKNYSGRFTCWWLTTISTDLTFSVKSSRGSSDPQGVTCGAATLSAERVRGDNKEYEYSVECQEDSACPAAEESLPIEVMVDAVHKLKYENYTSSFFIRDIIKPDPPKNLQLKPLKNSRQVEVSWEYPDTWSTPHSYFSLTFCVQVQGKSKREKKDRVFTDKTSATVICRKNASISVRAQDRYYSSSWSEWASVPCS
T1 sequence 2: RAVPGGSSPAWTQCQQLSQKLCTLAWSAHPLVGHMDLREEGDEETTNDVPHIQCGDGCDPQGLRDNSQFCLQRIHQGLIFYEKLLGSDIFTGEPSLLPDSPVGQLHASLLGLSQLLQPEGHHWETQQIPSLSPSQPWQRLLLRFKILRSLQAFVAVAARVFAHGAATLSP
Protocol: (§1) SPR was utilized to determine if the affinity constants of each arm of the bispecific variants binding human IL-23, containing the p40 subunit, and human TL1A were the same for each bispecific approach. For the analysis of the p40 binding arm, kinetic assays were conducted at 37° C. using a collection rate of 10 Hz on a Biacore™ 8 K+ instrument (GE Healthcare). An anti-human IgG antibody (anti-human Fc, GE Healthcare, 22-0648-88) was amine coupled to all four flow cells of a carboxymethylated dextran coated sensor chip (GE Healthcare,) using the manufacturer's recommended protocol. […] For the analysis of the TL1A binding arm, kinetic assays were conducted at 37° C. using a collection rate of 10 Hz on a Biacore™ T200 instrument (GE Healthcare).
(§2) As described above in EXAMPLE 12, SPR was utilized to determine if the affinity constants of each arm of the bispecific variants binding human IL-23, containing the p40 subunit, and human TL1A were the same for each bispecific variant.

recombinant human TL1A [1] = target: T2, recombinant human TL1A (human, UniProt O95150 71-251); assay: cell-based or functional assay
T2 chain: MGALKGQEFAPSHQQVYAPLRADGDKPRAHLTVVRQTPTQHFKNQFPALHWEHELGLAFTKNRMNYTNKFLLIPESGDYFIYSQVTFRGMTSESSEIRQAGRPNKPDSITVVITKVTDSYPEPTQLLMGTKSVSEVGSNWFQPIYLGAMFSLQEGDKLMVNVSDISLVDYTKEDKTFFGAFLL

recombinant human TL1A [2] = target: T2, recombinant human TL1A; assay: SPR, 37 C; biotinylated human TL1A captured on Biotin CAPture chip, antibody injected
Protocol: as §1, §2

recombinant human TL1A [3] = target: T3, recombinant human TL1A (human, UniProt O95150 71-251); assay: competition ELISA on plate-coated recombinant human TL1A, competitor biotinylated TL1A-0260 (bio-TL1A-0260), streptavidin-HRP, OD450
T3 construct: Homotrimeric cytokine; biotinylated with Sulfo-NHS-biotin where captured for SPR, coated unlabelled in ELISA, soluble in bioassays; also called TNFSF15
T3 chain: T2 chain
Protocol: For this competition ELISA assay procedure, 96-well high binding plates (Corning, product number 3590) were coated with 1 μg/mL recombinant TL1A in 100 μL/well in Phospate Buffered Saline (PBS) overnight at 4° C. Plates were then blocked in PBS+0.02% casein solution and washed with PBS+0.05% Tween-20 following standard ELISA protocol. […] Plates were washed with PBS+0.05% Tween-20 following standard ELISA protocol, and Streptavidin-HRP (Southern Biotech, product number 7100-05) diluted to 1:10,000 in assay buffer was added to plates and incubated for 25-30 minutes at room temperature. Next, the plates were washed with PBS+0.05% Tween-20 following standard ELISA protocol, and then TMB substrate (BioFX Laboratories Catalog number TMBW-0100-01) was added to plates. Reactions were stopped after approximately 5 minutes by adding 0.18 M ortho-phosphoric acid to each well and absorbance was read at 450 nm.

[4] = target: T4, full-length human TL1A on CHO-K1 cells (human, UniProt O95150 1-251); assay: flow cytometry on CHO-K1 cells stably expressing full-length human TL1A, PE anti-human IgG, median fluorescent intensity
T4 construct: whole, on cells; also called cells over-expressing human TL1A
T4 sequence (looked up): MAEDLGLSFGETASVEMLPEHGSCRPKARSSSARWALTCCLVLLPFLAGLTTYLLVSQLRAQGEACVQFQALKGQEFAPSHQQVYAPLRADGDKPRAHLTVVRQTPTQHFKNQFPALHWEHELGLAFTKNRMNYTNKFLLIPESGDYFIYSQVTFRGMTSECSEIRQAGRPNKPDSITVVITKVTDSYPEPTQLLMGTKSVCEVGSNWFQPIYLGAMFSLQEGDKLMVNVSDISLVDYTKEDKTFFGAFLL
Protocol: A cell binding assay was performed to examine if the panel of [xTL1A] bivalent antibody variants could bind to human TL1A over-expressed on the cell surface. […] [xTL1A] bivalent antibody variants were incubated with cells on ice for 30-60 minutes at a concentration of either 1 μg/mL or 20 μg/mL. Cells were pelleted by centrifugation at 1500 RPM for 5 minutes at 4° C. and supernatant was discarded by aspiration. The cells were washed three times with DPBS with 4% FBS buffer as described. Cells were resuspended in 100 μL of PE-anti-human IgG (Life technologies Catalog number H10104) diluted 1:500 in DPBS with 4% FBS buffer and incubated on ice for 15 minutes. Cells were washed three times as described and resuspended in 200 μL of DPBS with 4% FBS buffer, then run on a flow cytometry instrument.

human serum albumin = target: T5, human serum albumin (human, UniProt P02768 25-609); assay: direct binding ELISA on coated HSA
T5 construct: also called HSA
Protocol: (§3) For the direct binding ELISA method to HSA or BSA, 96-well high binding plates (Corning, product number 3590) were coated with 1 μg/mL recombinant HSA or BSA in 100 μL/well in PBS overnight at 4° C. Plates were then blocked in PBS+0.02% casein solution and washed with PBS+0.05% Tween-20 following standard ELISA protocol. […] Plates were washed with PBS+0.05% Tween-20 following standard ELISA protocol, and goat anti-human IgG-Fc HRP conjugated secondary antibody (Pierce, #31413) diluted to 1:10,000 in assay buffer was added to plates and incubated for 1 hour at room temperature. Next, the plates were washed with PBS+0.05% Tween-20 following standard ELISA protocol, and then TMB substrate (BioFX Laboratories, catalog number TMBW-0100-01) was added to plates.
(§4) Reactions were stopped after approximately 5 minutes by adding 0.18 M ortho-phosphoric acid to each well and absorbance was read at 450 nm. […] For this method, samples diluted to 0.3 mg/mL were dispensed into the sample tray of a MicroCal VP-Capillary DSC with Autosampler (Malvern Instruments, Inc.), equilibrated for 5 minutes at 10° C. and then scanned up to 110° C. at a rate of 100° C. per/hour. A filtering period of 16 seconds was selected. Raw data was baseline corrected and the protein concentration was normalized. Origin Software 7.0 (Origin Lab Corporation, Northampton, MA) was used to fit the data to an MN2-State Model with an appropriate number of transitions.

bovine serum albumin = target: T6, bovine serum albumin (bovine, UniProt P02769 25-607); assay: direct binding ELISA on coated BSA
T6 construct: also called BSA
T6 sequence (P02769 25-607 limits assumed): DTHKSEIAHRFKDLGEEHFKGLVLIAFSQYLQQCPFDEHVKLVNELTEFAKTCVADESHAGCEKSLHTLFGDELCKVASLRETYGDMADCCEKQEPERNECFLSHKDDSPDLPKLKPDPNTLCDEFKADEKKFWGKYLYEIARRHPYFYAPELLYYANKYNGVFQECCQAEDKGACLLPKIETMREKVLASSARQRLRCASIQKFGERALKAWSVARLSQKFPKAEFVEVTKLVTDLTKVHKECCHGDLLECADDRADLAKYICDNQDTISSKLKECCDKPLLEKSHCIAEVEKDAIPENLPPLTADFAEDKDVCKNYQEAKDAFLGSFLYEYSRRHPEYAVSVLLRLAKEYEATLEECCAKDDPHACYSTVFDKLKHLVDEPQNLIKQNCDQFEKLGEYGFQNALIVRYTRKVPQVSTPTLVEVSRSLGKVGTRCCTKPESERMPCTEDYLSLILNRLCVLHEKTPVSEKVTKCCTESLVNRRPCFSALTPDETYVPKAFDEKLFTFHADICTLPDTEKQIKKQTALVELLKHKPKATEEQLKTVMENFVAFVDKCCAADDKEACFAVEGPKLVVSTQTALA
Protocol: as §3, §4

Kd (human IL-23): 194 pM
koff (human IL-23): 0.00055 s⁻¹
kon (human IL-23): 2.83e+06 M⁻¹ s⁻¹
NF-κB assay IC50 (TF-1 reporter cells, 384-well) (recombinant human TL1A [1]): 270 pM
Kd (recombinant human TL1A [2]): 627 pM
koff (recombinant human TL1A [2]): 8.22e-05 s⁻¹
kon (recombinant human TL1A [2]): 131000 M⁻¹ s⁻¹
B1: p40TL1A-0040 KiH mFd bispecific antibody (bispecific antibody)
heavy: EVQLVQSGAEVKKPGESLKISCKGSGYSFTTYWLGWVRQMPGKGLDWIGIMSPVDSDIRYSPSFQGQVTMSVDKSITTAYLQWNSLKASDTAMYYCARRRPGQGYFDFWGQGTLVTVSSASTKGPSVFPLAPSSKSTSGGTAALGCLVKDYFPEPVTVSWNSGALTSGVHTFPAVLQSSGLYSLSSVVTVPSSSLGTQTYICNVNHKPSNTKVDKKVEPKSCDKTHTCPPCPAPEAAGAPSVFLFPPKPKDTLMISRTPEVTCVVVDVSHEDPEVKFNWYVDGVEVHNAKTKPREEQYNSTYRVVSVLTVLHQDWLNGKEYKCKVSNKALPAPIEKTISKAKGQPREPQVYTLPPCREEMTKNQVSLSCAVKGFYPSDIAVEWESNGQPENNYKTTPPVLDSDGSFFLVSKLTVDKSRWQQGNVFSCSVLHEALHSHYTQKSLSLSPGK
light: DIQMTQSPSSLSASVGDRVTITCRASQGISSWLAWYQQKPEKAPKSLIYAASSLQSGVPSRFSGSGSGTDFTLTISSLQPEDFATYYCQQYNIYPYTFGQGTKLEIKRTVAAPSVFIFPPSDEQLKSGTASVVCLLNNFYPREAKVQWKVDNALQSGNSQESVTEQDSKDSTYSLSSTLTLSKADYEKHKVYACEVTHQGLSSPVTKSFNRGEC
LC-Fc: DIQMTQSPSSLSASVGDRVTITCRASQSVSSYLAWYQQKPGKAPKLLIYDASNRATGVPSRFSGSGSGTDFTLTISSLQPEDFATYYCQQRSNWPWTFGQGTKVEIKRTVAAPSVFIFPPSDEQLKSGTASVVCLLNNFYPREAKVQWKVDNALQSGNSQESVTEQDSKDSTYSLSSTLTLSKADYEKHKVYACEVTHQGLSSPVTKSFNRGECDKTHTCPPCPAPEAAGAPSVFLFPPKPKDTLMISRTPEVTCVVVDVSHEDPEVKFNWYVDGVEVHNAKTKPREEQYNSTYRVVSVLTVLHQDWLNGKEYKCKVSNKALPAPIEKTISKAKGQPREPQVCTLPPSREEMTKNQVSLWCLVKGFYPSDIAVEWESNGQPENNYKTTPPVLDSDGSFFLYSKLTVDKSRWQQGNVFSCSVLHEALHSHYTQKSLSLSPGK
mFd: QVQLVQSGAEVKKPGASVKVSCKASGYDYTYYGISWVRQAPGQGLEWMGWISTYNTGTHYAPSLQGRVTMTTDTSTSTAYMELRSLRSDDTAVYYCARESYYGSGAFRGGMDVWGQGTTVTVSSASTKGPSVFPLAPSSKSTSGGTAALGCLVKDYFPEPVTVSWNSGALTSGVHTFPAVLQSSGLYSLSSVVTVPSSSLGTQTYICNVNHKPSNTKVDKKVEPKSC
notes: Same format as p40TL1A-0033 with knob and hole swapped

binding result (recombinant human TL1A [3]): no binding (tested: 300 nM)
binding result [4]: no binding (tested: 20 ug/mL)
B2: [xTL1A]-0341 (antibody, human IgG1, kappa, V domains shown)
VH: QVQLVQSGAEVKKPGASVKVSCKASGYTFTSYGISWVRQAPGQGLEWMGWISAYNGNTNYAQKLQGRVTMTTDTSTSTAYMELRSLRSDDTAVYYCARESSYGSEAFRAGMDVWGQGTTVTVSS
VL: DIQMTQSPSSLSASVGDRVTITCRASQSVSSYLAWYQQKPGKAPKLLIYDASNRATGVPSRFSGSGSGTDFTLTISSLQPEDFATYYCQQRSNWPWTFGQGTKVEIKR
notes: bivalent disabled antibody, IgG1 effector-function-minimized/kappa

Kd (human IL-23): 207 pM
koff (human IL-23): 0.000488 s⁻¹
kon (human IL-23): 2.35e+06 M⁻¹ s⁻¹
NF-κB assay IC50 (TF-1 reporter cells, 384-well) (recombinant human TL1A [1]): 320 pM
Kd (recombinant human TL1A [2]): 419 pM
koff (recombinant human TL1A [2]): 7.42e-05 s⁻¹
kon (recombinant human TL1A [2]): 177000 M⁻¹ s⁻¹
B4: p40TL1A-0042 KiH mFd bispecific antibody (bispecific antibody)
heavy: QVQLVQSGAEVKKPGASVKVSCKASGYDYTYYGISWVRQAPGQGLEWMGWISTYNTGTHYAPSLQGRVTMTTDTSTSTAYMELRSLRSDDTAVYYCARESYYGSGAFRGGMDVWGQGTTVTVSSASTKGPSVFPLAPSSKSTSGGTAALGCLVKDYFPEPVTVSWNSGALTSGVHTFPAVLQSSGLYSLSSVVTVPSSSLGTQTYICNVNHKPSNTKVDKKVEPKSCDKTHTCPPCPAPEAAGAPSVFLFPPKPKDTLMISRTPEVTCVVVDVSHEDPEVKFNWYVDGVEVHNAKTKPREEQYNSTYRVVSVLTVLHQDWLNGKEYKCKVSNKALPAPIEKTISKAKGQPREPQVYTLPPCREEMTKNQVSLSCAVKGFYPSDIAVEWESNGQPENNYKTTPPVLDSDGSFFLVSKLTVDKSRWQQGNVFSCSVLHEALHSHYTQKSLSLSPGK
light: not shown
LC-Fc: not shown
mFd: EVQLVQSGAEVKKPGESLKISCKGSGYSFTTYWLGWVRQMPGKGLDWIGIMSPVDSDIRYSPSFQGQVTMSVDKSITTAYLQWNSLKASDTAMYYCARRRPGQGYFDFWGQGTLVTVSSASTKGPSVFPLAPSSKSTSGGTAALGCLVKDYFPEPVTVSWNSGALTSGVHTFPAVLQSSGLYSLSSVVTVPSSSLGTQTYICNVNHKPSNTKVDKKVEPKSC
notes: KiH mFd format with the anti-p40 arm as modified Fd

Second part, the binder before the results:

B3: p40TL1A-0041 KiH mFd bispecific antibody (bispecific antibody)
heavy: B4 heavy with Y356C, C361S, S373W, A375L, V414Y
light: not shown
LC-Fc: not shown
mFd: B4 mFd
notes: as for B4
Kd (human IL-23): 213 pM
koff (human IL-23): 0.000485 s⁻¹
kon (human IL-23): 2.29e+06 M⁻¹ s⁻¹
NF-κB assay IC50 (TF-1 reporter cells, 384-well) (recombinant human TL1A [1]): 320 pM
Kd (recombinant human TL1A [2]): 577 pM
koff (recombinant human TL1A [2]): 7.56e-05 s⁻¹
kon (recombinant human TL1A [2]): 131000 M⁻¹ s⁻¹

B5: TL1A-0370 MBsAb (bispecific antibody)
heavy 1: B4 heavy with Y356C, C361S, S373W, A375L, V414Y
heavy 2: B2 VH
light: not shown
notes: not shown: human IgG1 constant region with hole KiH, effector-minimizing and LS mutations
binding result (human serum albumin): no binding (tested: 0.5-1000 nM)
binding result (bovine serum albumin): no binding (tested: 0.5-1000 nM)
